The series is described as follows: yeast display, Sf9 membrane polyspecificity reagent, FACS + sequencing; frameworks hold sequencing errors. The essentials: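 Galactose-induced (36–48 hours) yeast carrying a synthetic nanobody display library were exposed to 10% biotinylated, detergent-solubilized Sf9 membrane reagent at 4 °C for 1 hour. FACS followed streptavidin microbead enrichment, using low and high (top ~1%) gates for expression (anti-HA) and reagent binding (streptavidin). Colony PCR, MiSeq 2 × 250 sequencing and CDR-length filtering followed. Labels for polyreactivity reflect the gate of origin.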
For “QVQLVESGGGIVQAGGSLRLSCAASGRNFVRNAMGWYRQAPGKERELVAAISGGGGNTYYADSVKGRFTISRDNAKNTVYLQMYSLKPEDTAVYYCNALAYGYWYRYYYWGLGTQVTVSS”, the “polyreactivity (PSR sort gate)” value is “high polyreactivity”.
The value for “QVQLVESGGGLVQAGGSLRVSCAASGRTFGVYTMGWYRLAPGKERELVAAITWGGGRTYYADSVKGRFTISRDNAKNTVYLHMNSLKPEDTAVYYRAARVRGQGSYHFGYWGQGTQVTVSS” was “high polyreactivity”.
For “QVQLVESGGGLVQAGGSLRLSCAASGFTFPSNAMGWYRQAPGKERELVAAISSTDSTNYADSVKGRFTISRDNAKNTVYFQMNSLKPEDTAVYYCAKRYPRYRYNTRGNDYWGQGTQVTVSS”, the “polyreactivity (PSR sort gate)” value is recorded as “low polyreactivity”.
The same measure for “KVQLVESGGGLVQAGGSLRISCAASGITFVRNAMGWYRQAPGKERELVAAISSGGSTYYADSVKGSFTISRDNAKITVYLLMYSLKPEDNAVYFCAVLSSWRFSGYDYWGQGTQVNVSS”: “low polyreactivity”.
The same measure for “QVQLVESGGGLVQAGGSLRLSCAASGSIFRVYAMRWYRQAPGKERELVAAISKSGSSTYYADSVKGRFTISRDNAKNTVYLQMNSLKPEDTAVYYCAARRVLGEYGYWGQGTQVTVSS”: “high polyreactivity”.
The value for “QVQLVESGGGLVQAGGRLRLSCAASGFTFRYYALGWYRQAPGKERELVAAISAGGGSTYYADSVKGRFTISRDNAKNNVYLQMHSQKPDDTAVYYCASAGARPGYDYWGQCTQVTVSS” was “high polyreactivity”; that for “QVQLEESAGGLVQAGGSLRLSCAASGFTFRRYARGWYRQAPGKERELVAAISSRGGSTYYADSVKGRFTISRDNAKNTGYLQMKSLKPEDTAVYYCNRDAWGGTDLLGYNYWGHGTQVTVSS” was “high polyreactivity”.
Take “QVQLGESGGGLVQAGGSLRLSCAASGRIFLRNVMGWYRPAPGKERELVAAISLSGASTYYADSVKGRFTISRDNAKNTVYLQMNSLKPEDTAVYYCAADITILSDYWGQGTQVTVSS”: the “polyreactivity (PSR sort gate)” value is on record as “low polyreactivity”.
In the case of “QVQLVESGLGLVQAGGSLRLSCAASGSIFNIYAMGWYRQAPGKERELVAAITTGTRTYADSVKGLFTISRDNAKNTVYLLMNSLKPEDTAVDYCAAVSPTYPNTFYRYNYWGQGTQVTVSS”, the “polyreactivity (PSR sort gate)” value is given as “low polyreactivity”.
The value for “QVQLVESGGGLVQAGGSLRLSCAASGIIFYIYAMGWYRQAPGKERELVAAITSSGGSTNYADSVKGRFTISRDNAKNTVYLQMNSLKPEDTAVYYCAAAYRPWQEFYWGQGTQVTVSS” was “high polyreactivity”; that for “QVQLVESGGGLVQAGGSLRLSCAASGRTLRVNTMGWYRQAPGKERELVAAISSGGSRTNYADSVKGRFTISRDNAKNTVYLQMNSLKPEDTAVYYCNKYNRFVYSPPSVYWGQGTQVTVSS” was “high polyreactivity”; that for “QVQLVESGGGLVQAGGSLRLSCAASGITFKPYGMGWYRQAPGKERELVATISWSGGSTNYADSVKGRFTISRDNAKNTVYLQMNILKPEDTAVYYCAATSYSHTEIRYDYWGQGTQVTVSS” was “low polyreactivity”.
For “QVQLVESGGGLVQAGGSLRLSCAASGSIFLKYTMGWYRQAPGKERELVAAITSGGTTNYADSVKGRFTISRDNAKNTVYLQMNSLKPEDTAVYYCARDSYQLGLIRDPLEYDYWGQGTQVTVSS”, the “polyreactivity (PSR sort gate)” value was “low polyreactivity”.
The value for “QVQLVESGGGLVQAGGSLRLSCAASGRTFGGYPMGWYRQAPGKERELVASINSGGSTYYADSVKGRFTISRDNAKNTVYLQMNSLKPEDTAVYYCAKRLGGRTLRKYGYWGQGTQVTVSS” was “high polyreactivity”; that for “QVQLVESGGGLVQAGGSLRLSSDASGSIFHTYAMGWYRQAPGKERELVAAITVSGGDTYYADSVKGRFTISRDNAKNTVYLQKISLKAEDTAVYYCAVDTTTSYTVEYDYWGQGTQVTVSS” was “low polyreactivity”; that for “QVQLQESGGGLEHAGGSLRLSCAASGNIFLSIFMGWYRQAPGKEREFVAGIGSGTNTNYADSVKGRFTISRDNANNTVYLQMNSLKPEDTAVYYCNAVWGSHYPTYAKLSRDYWGQGTQVTVSS” was “high polyreactivity”.
Consider “QVQLVESGGGLFQAGGSLRLSCAASGITFERYTMGWYRQAPGKERELVAAIRGSGGTYYADSVKGRFTISRENAKNTVYLQMNSLKPEDTAVYYCNAVLWVYYHWPYDYWGQGTQVTVSS”, for which the “polyreactivity (PSR sort gate)” value was “high polyreactivity”.
In the case of “QVQLVESGGGLVQAGGSLRLSCAASGRIFGSYAMVWYRQVPGKERELVAASNWRGGSTFYADSVKGRFTISRDIAKNTVFLQMNSLKPDDNAVYYCSRRVYPQSCDNWGQGTQLTVSS”, the “polyreactivity (PSR sort gate)” value is recorded as “low polyreactivity”.
As to “QVQLVESGGGLVQAGGSLRLSCAASGFIFGRYTMGWYRQAPGKERELVAAISGSDVSTYYADSVKGRFTISRDNAKNTVYLQMNSLKPEDTAVYYCAADAPWAYYEYDYWGQGTQVTVSS”, the “polyreactivity (PSR sort gate)” value was “low polyreactivity”.
For the sequence “QVQLVESGGVLVQAGGSLRLSCAASGSTFFVYAMGWYRQAPGKERELVAAISSRGSTYYADSVKGRFTISRDNAKNTVYLQMNSLKPEDTAVYYCAAEYTVSYLRMDYWGQGTQVTVSS”, the “polyreactivity (PSR sort gate)” value is given as “low polyreactivity”.
Regarding “QVQLVESGGGLVQAGGSLRLSCAASGITFDQYVMGWYRQAPGKERELVAAIDRSDGITYYADSVKGRFTISRDNAKNSVYLQMNSLTPEDTAVYYCAAVTYTPVYGGYYWDGGYWGQGTQVTVSS”, the “polyreactivity (PSR sort gate)” value is given as “low polyreactivity”.
For “QVQLVESGGGLVHAGGSLRLSCAASGSIYIFNAMGWYRQAPGKEREFVARIRRDSSTYYADSVKGRFTISRDNAKNTVYLQMNSLKPEDTAVYYCAAKRVYRRVELNSWGQGTQVTVSS”, the “polyreactivity (PSR sort gate)” value was “low polyreactivity”.
“QVQLVESGGGLVQAGGSLRLSCAASGITFRGNAMGWYRQAPGKERELVATISSGGITNYADSVKGRFTISRDNAKNTVYLQMNSLKPEDTAVYDCNADNAYGFYRVKYEGYYWGQGTQVTVSS”: the “polyreactivity (PSR sort gate)” value is listed as “low polyreactivity”.
In the case of “QVQLVESGGGLVQAGGSLRLSCAASGITIKYYTMGWYRQANGKERELVAAISRSGGSTYYADSVKGRFTISLDNAKNTVYLQMNSMIPEDTAVYYCAAERVAYRGVTFPYGYWGQGTQVTVSS”, the “polyreactivity (PSR sort gate)” value was “high polyreactivity”.
The value for “QAQLQESGGSLVKAGGGLRLSCAASGYISVGSVMGRYRQAPSKERELVASIDQGANTNYADSVKGRFTISRDNGKNNVYLQMNSLKPEDTAVYYCATETTYILNYWGQGTEVTVSS” was “low polyreactivity”.
The value for “QVQLVESGGGLVQAGGSLRLSCAASGFIFRSNAMGWYRQAPGKERELVAAITRGDSTNYADSVKGRFTITRDNAKNTDYLQKNSLKPEDTAVYYCAAGRSYHSGVHHYRKRNYWGQGTQVTVSS” was “high polyreactivity”; that for “QLQLVESGGGLLQAGGSLRLSCAAPGSTFAPNTMGWNRQPPGKARELVARITSSDGSTSYADSVKGRFTISRDNAKNTVYLQMNSLKPEDTAVYYCAAQYSYSMDYWGQGTQVTVSS” was “low polyreactivity”; that for “QVQLVESGGGLVQAGGSLRLSCAASGRTIDHYAMGWYRQAPGKERELVAAISTTGGSTYYADSVKGRFTISRDNAKNTVYLQMNSLKPEYTAVYYCAARGLRTGGYWGQGTQVTVSS” was “high polyreactivity”.
With “QVQLVESGGGLVKEGGSLRLSCAASGITFSWNAMGWYRQAPGKERELVAAISSSGGSTYYADSVKGRFTISRDYAKNTVYLLMNSLKPEDTAVYFCNADRFWFHWVYSRYHYDYWGQGTQVTVSS”, the “polyreactivity (PSR sort gate)” value is reported as “high polyreactivity”.
The same measure for “QVQLVESGGGLVQAGGSLRLSCAASGIIFHWYAMGWYRQAPGKERELVAAITQSGGSTSYADSVKGRFTISRDNAKNTVYLQMNSLKPEDTAVYYCAKDYAYTLWENYYAFNYWGQGTQVTVSS”: “low polyreactivity”; for “QVQLVESGGGLVQAGGSLRLSCAASGLTSYSYAMGWYRPAPGKERELVAAITVNGGRTYYADSVKGRFTISRDNAKNTVYLQMNSLKPEDTAVYYCAAREVTGRPRSYYYWGQGTQVTVSS”: “low polyreactivity”.
For “QDHLVDSGGGLVQAGGSLRLSCAAYGFTFYYNTMGWYRQAPGKERQLVAAISYSAGSTFYADSVKGRFTISRDNAKNTVYLQMNSLKPEDTAVYYCAAGRPRLHKGYHFGYWGQGTQVTVSS”, the “polyreactivity (PSR sort gate)” value is “low polyreactivity”.
On to “QVQHVESGGGLFQAGGSLRLSCAASGTTFRYYAMGWYRQAPVKERELVAYITTSGGTYYADSVKGRFTISRDNAKNTVYLQMNSLKPEDTAVDYCAARRQDYTYYRIYNFDYWGQGTQVTVSS”, for which the “polyreactivity (PSR sort gate)” value is “high polyreactivity”.
The same measure for “QVQHVESGGGLVQAGGSLRLSCAASGYTFTINTMGWYRQAPGKERELVAAITWRGGSTYYADSVKGRFTISRDNAKNTVYLQMNSLKPEDSAVYYCNKDYYITTTTFDYWGQGTQVTVSS”: “low polyreactivity”.
Consider “QVQLVESGGGLVQAGGSLRLSCAASGFIFGPNAMGWYRQAPAKERELVAAISYSGGRTYYADSVKGRFTISRDNAKNTVYLQMNSLKPEDTSVYYCAADAYWYGRSYYWGQGTQVTVSS”, for which the “polyreactivity (PSR sort gate)” value is “high polyreactivity”.
“QVQLVESGGGLVQAGGSLRLSCAASGRTFHSYAMGWYRQAPGKERELVAVITRRGGSTYYADSVKGRFTISRDNAKNTVYLQMNSLKPEDTAVYYCNKGKSYTYDYWGQGTQVTVSS”: the “polyreactivity (PSR sort gate)” value is given as “high polyreactivity”.
The same measure for “QVQLVESGGGLVQAGGSLRLSCAASGRTFDNNAMGWYRQAPGKERELVAAINWSGVRTYYADSVKGRFTISRDNAKNTVYLQMNSLKPEDTAVYYCNTVSASYYYRYNSWGQGTQVTVSS”: “high polyreactivity”; for “QVQLVESGGGLVQAGGSLGLSCAPSGYTFVPYVMGWYRQAPGKERELVAAISRGGSTYYADSVKGRFTISRDHAKNTVYLQMNSLKPEDTAVYYCNAGWFKYYPNLQAFKYWGQGTQVTVSS”: “high polyreactivity”; for “QVQLVESGGGLVQAGGSLRLSCAASGSTFGPNAMGWYRQAPGKERELVAAIRSNGGRTYYADSVKGRFTISRDNAKNTVYLQMNSLKPEDTAVYYCAAPHYPYDTPYGYWGQGTQVTVSS”: “low polyreactivity”.
With “QVQLVESGGGSVQAGGSLRLSCAASGFNFVYYAMGWYRQAPGKERELVAAITWSGGSTYADSVKGRFTISRDNAKNTVYLQMNSLKPEDTAVYYCAAEYDISSGYGFDFDYWGQGTQVTVSS”, the “polyreactivity (PSR sort gate)” value is listed as “low polyreactivity”.
The same measure for “QVQLVESGGGLVQAGGSLRLSCAASGRTFYGYAMGWYRQAPGKERELVATITSGGSTKYADSVKGRFTISRDNAKNTVYLQMNSLKPEDTAVYYCAARTGGHRGYDYWGQGTQVTVSS”: “low polyreactivity”.

Source of the values: the nanobody polyreactivity screen of Harvey et al. (2022).
